Reference: publication PMC4122225 (2014)

Key:
Assay in all cases: ELISA
[1] = target: Apolipoprotein E3 (LipoE3) (Homo sapiens, UniProt P02649)
[2] = target: Apolipoprotein E4 (LipoE4) (Homo sapiens, UniProt P02649)
[3] = target: Apolipoprotein E2 (LipoE2) (Homo sapiens, UniProt P02649)
Chain of Apolipoprotein E2 (LipoE2) (P02649 19-317): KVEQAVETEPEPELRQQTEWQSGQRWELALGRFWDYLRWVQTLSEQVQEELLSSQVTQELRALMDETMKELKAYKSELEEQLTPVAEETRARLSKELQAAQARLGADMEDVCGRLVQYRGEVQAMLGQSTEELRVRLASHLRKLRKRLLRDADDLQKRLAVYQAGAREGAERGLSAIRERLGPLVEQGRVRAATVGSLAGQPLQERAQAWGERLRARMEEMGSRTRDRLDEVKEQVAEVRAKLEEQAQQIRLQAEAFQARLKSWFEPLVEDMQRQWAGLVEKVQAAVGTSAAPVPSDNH

Chain of Apolipoprotein E4 (LipoE4) (P02649 19-317): as above
Chain of Apolipoprotein E3 (LipoE3) (P02649 19-317): as above

B1: Haptoglobin (phenotype 1-1) (protein)
chain 1: VDSGNDVTDIADDGCPKPPEIAHGYVEHSVRYQCKNYYKLRTEGDGVYTLNDKKQWINKAVGDKLPECEADDGCPKPPEIAHGYVEHSVRYQCKNYYKLRTEGDGVYTLNNEKQWINKAVGDKLPECEAVCGKPKNPANPVQ
chain 2: ILGGHLDAKGSFPWQAKMVSHHNLTTGATLINEQWLLTTAKNLFLNHSENATAKDIAPTLTLYVGKKQLVEIEKVVLHPNYSQVDIGLIKLKQKVSVNERVMPICLPSKDYAEVGRVGYVSGWGRNANFKFTDHLKYVMLPVADQDQCIRHYEGSTVPEKKTPKSPVGVQPILNEHTFCAGMSKYQEDTCYGDAGSAFAVHDLEEDTWYATGILSFDKSCAVAEYGVYVKVTSIQDWVQKTIAEN
modifications: ApoE3 isoform, lecithin liposome-associated
Kd [1]: 59.6 nM

B2: Haptoglobin (phenotype 1-1) (protein)
chain 1: B1 chain 1
chain 2: B1 chain 2
modifications: ApoE4 isoform, lecithin liposome-associated
Kd [2]: 54.9 nM

B3: Haptoglobin (phenotype 1-1) (protein)
chain 1: B1 chain 1
chain 2: B1 chain 2
modifications: ApoE2 isoform, lecithin liposome-associated
Kd [3]: 58.2 nM
